Data: CN116063501A (HUADAO SHANGHAI BIOMEDICAL CO LTD, dated 2023)

Target: T1, CD4抗原 (UniProt P01730 26-458, limits assumed)
T1 construct: whole, on cells; also called 细胞表面的CD4抗原
Experiment: flow cytometry on Nalm6-CD4 cells; antibody from 4 μg/mL in 4-fold steps, 10 concentrations; APC goat anti-mouse IgG secondary

- EC50: 0.101 µg/mL
B1: 抗CD4-1抗体 (antibody, V domains shown)
VH: EVQLQQSGPELVKPGDSVKMSCKASGYTFTDYFMDWVKQSHGKSLEWIGYIYPNNGGTNNNQKFKGKATLTVDKSSSTAYMELHSLTSEDSAVYYCARRGYDEGFAYWGQGTLVTVSS
VL: DILLTQSPAILSVSPGERVSFSCRASQIIGTSILWYQQRTNGSPRLLIKYASESISGIPSRFSGSGSGTDFTLSINSVESEDIADYYCQQSNTWPFTFGGGTKLEMK
notes: Detected with a goat anti-mouse IgG secondary antibody; also called 抗CD4抗体; 抗CD4(CD4-1)抗体
